Assay results as given in the RNAGym collection of RNA variant scans (doi:10.7554/elife.80360).

B1: CPEB3 Ribozyme (parent)
chain: GGGGGCCACAGCAGAAGCGUUCACGUCGCGGCCCCUGUCAGAUUCUGGUGAAUCUGCGAAUUCUGCUGU

Variants of: B1
Assay: self-cleavage, relative activity (ratio to wild type); higher = more cleavage; co-transcriptional
C32A C66G showed a self-cleavage of 0.708.
With C32G G56A the self-cleavage was 0.354.
With C32G G56U the self-cleavage was 0.308.
C32G G56C gave a self-cleavage of 0.218.
With C32A A60G the self-cleavage was 0.454.
For C32A C34G, the self-cleavage was 0.228.
In the case of C32A U49G, the self-cleavage is reported as 0.626.
C32A G41C gave a self-cleavage of 0.322.
C32U C34G gave a self-cleavage of 0.413.
In the case of C32U C34U, the self-cleavage is reported as 0.924.
Work on G31U U36C yielded a self-cleavage of 0.516.
Variant C32A C33G has a self-cleavage of 0.258.
In the case of G31U U62A, the self-cleavage is reported as 0.27.
C32U C57A gave a self-cleavage of 0.339.
In the case of C32U C54G, the self-cleavage is reported as 0.819.
In the case of G31C U64G, the self-cleavage is reported as 0.251.
G31U U49G showed a self-cleavage of 0.421.
With G31C U43A the self-cleavage was 0.193.
For C32U A40U, the self-cleavage was 0.871.
C32U A40G gave a self-cleavage of 0.95.
Work on C32U A40C yielded a self-cleavage of 0.734.
C32G C39G gave a self-cleavage of 0.389.
For C32G C39A, the self-cleavage was 0.282.
With C32A G65C the self-cleavage was 0.459.
For C32A G65U, the self-cleavage was 0.418.
C32A G50U showed a self-cleavage of 0.707.
Variant G31U C34U has a self-cleavage of 0.363.
Work on G31U A52C yielded a self-cleavage of 0.556.
G31U C32A showed a self-cleavage of 0.321.
For C32G U69G, the self-cleavage was 0.775.
With C32G U69A the self-cleavage was 0.709.
G31C G58U gave a self-cleavage of 0.209.
G31C G58C showed a self-cleavage of 0.179.
For C32A G37U, the self-cleavage was 0.18.
For C32A G37A, the self-cleavage was 0.263.
G31U A42U gave a self-cleavage of 0.485.
C32G C45A showed a self-cleavage of 0.381.
Work on C32G C45U yielded a self-cleavage of 0.573.
With C32G G65U the self-cleavage was 0.267.
For G31U G37A, the self-cleavage was 0.206.
Work on C32U G41U yielded a self-cleavage of 0.856.
C32U G41C gave a self-cleavage of 0.858.
In the case of G31C G50A, the self-cleavage is reported as 0.214.
For G31U U53C, the self-cleavage was 0.354.
For G31U C33A, the self-cleavage was 0.235.
For C32U G47A, the self-cleavage was 0.971.
C32U G47C gave a self-cleavage of 0.97.
C32U C33G showed a self-cleavage of 0.374.
C32G C63U showed a self-cleavage of 0.358.
With C32G C63G the self-cleavage was 0.233.
Work on G31C U38A yielded a self-cleavage of 0.237.
G31U A59G showed a self-cleavage of 0.514.
With G31U A59C the self-cleavage was 0.356.
G31U A51U gave a self-cleavage of 0.805.
For G31U A51C, the self-cleavage was 0.628.
With G31U G41A the self-cleavage was 0.348.
Variant G31U G41C has a self-cleavage of 0.283.
In the case of C32G C57U, the self-cleavage is reported as 0.234.
For C32G C57A, the self-cleavage was 0.252.
With C32G U46C the self-cleavage was 0.594.
For C32A C57A, the self-cleavage was 0.245.
G31U A40U showed a self-cleavage of 0.352.
Variant C32U C35A has a self-cleavage of 0.25.
Work on C32U C35U yielded a self-cleavage of 0.77.
In the case of C32U A51G, the self-cleavage is reported as 1.
For C32U A51U, the self-cleavage was 0.982.
C32A C63A showed a self-cleavage of 0.317.
For G31C U67C, the self-cleavage was 0.358.
Work on C32A G58U yielded a self-cleavage of 0.914.
With C32G A51G the self-cleavage was 0.48.
Work on C32G G50A yielded a self-cleavage of 0.554.
With G31U C57G the self-cleavage was 0.236.
Work on C32G C35U yielded a self-cleavage of 0.377.
C32U C63G gave a self-cleavage of 0.933.
In the case of C32G U61C, the self-cleavage is reported as 0.285.
In the case of C32G U61G, the self-cleavage is reported as 0.342.
Variant C32A U69G has a self-cleavage of 0.983.
With C32A U69A the self-cleavage was 0.965.
With G31U G65A the self-cleavage was 0.517.
Variant G31U G56C has a self-cleavage of 0.385.
With C32G C66U the self-cleavage was 0.394.
C32G C66A showed a self-cleavage of 0.256.
Work on G31U U61C yielded a self-cleavage of 0.258.
In the case of G31C G68A, the self-cleavage is reported as 0.515.
Work on C32A U38A yielded a self-cleavage of 0.791.
Work on C32A C39G yielded a self-cleavage of 0.6.
For C32A A51C, the self-cleavage was 0.391.
C32A A51U showed a self-cleavage of 0.566.
In the case of C32A G68C, the self-cleavage is reported as 0.913.
In the case of C32G C34G, the self-cleavage is reported as 0.212.
C32G C34A showed a self-cleavage of 0.303.
In the case of C32A G56C, the self-cleavage is reported as 0.478.
Variant G31C G65C has a self-cleavage of 0.185.
In the case of C32G A52G, the self-cleavage is reported as 0.364.
C32G A52U showed a self-cleavage of 0.48.
In the case of G31U G68C, the self-cleavage is reported as 0.958.
In the case of G31U G68U, the self-cleavage is reported as 0.974.
For C32A U62A, the self-cleavage was 0.281.
Variant C32A U62G has a self-cleavage of 0.324.
Work on C32G U49G yielded a self-cleavage of 0.371.
G31U G58A gave a self-cleavage of 0.482.
Work on G31U G58U yielded a self-cleavage of 0.86.
For C32U C39G, the self-cleavage was 0.996.
In the case of C32U C39A, the self-cleavage is reported as 0.915.
Variant C32G A60C has a self-cleavage of 0.194.
C32G A60U showed a self-cleavage of 0.19.
For G31U U55A, the self-cleavage was 0.428.
Variant C32A A59U has a self-cleavage of 0.445.
C32U G48U gave a self-cleavage of 0.964.
With C32U G48A the self-cleavage was 1.
With C32U G48C the self-cleavage was 0.984.
Work on G31U U44A yielded a self-cleavage of 0.577.
Variant G31U U44G has a self-cleavage of 0.3.
Work on G31U C35U yielded a self-cleavage of 0.363.
G31U C35A showed a self-cleavage of 0.26.
Work on G31U G50A yielded a self-cleavage of 0.758.
For C32U A52C, the self-cleavage was 0.913.
For G31U C54A, the self-cleavage was 0.306.
For G31U U67C, the self-cleavage was 0.939.
With C32G C54U the self-cleavage was 0.594.
C32G U44C gave a self-cleavage of 0.452.
Work on C32G G48C yielded a self-cleavage of 0.604.
G31C U55G showed a self-cleavage of 0.136.
C32A C45U showed a self-cleavage of 0.753.
In the case of C32A C45A, the self-cleavage is reported as 0.586.
C32G U36A showed a self-cleavage of 0.255.
With C32G U36C the self-cleavage was 0.215.
Work on C32A U44C yielded a self-cleavage of 0.482.
Work on C32G U55A yielded a self-cleavage of 0.268.
Work on C32G G58U yielded a self-cleavage of 0.622.
Variant C32G G58C has a self-cleavage of 0.478.
Work on C32U G37C yielded a self-cleavage of 0.241.
Variant C32U G37A has a self-cleavage of 0.288.
In the case of G31U U69G, the self-cleavage is reported as 1.02.
With C32G G41U the self-cleavage was 0.328.
In the case of C32G G68U, the self-cleavage is reported as 0.815.
G31U U64G showed a self-cleavage of 0.479.
In the case of G31C U62C, the self-cleavage is reported as 0.258.
For G31C U62A, the self-cleavage was 0.151.
Work on C32U A60C yielded a self-cleavage of 0.363.
For C32U A60U, the self-cleavage was 0.478.
In the case of C32G U64C, the self-cleavage is reported as 0.311.
Variant C32A A52G has a self-cleavage of 0.431.
Work on G31U C45U yielded a self-cleavage of 0.789.
Variant G31U C63A has a self-cleavage of 0.25.
In the case of G31U C63G, the self-cleavage is reported as 0.454.
Work on C32A C35U yielded a self-cleavage of 0.333.
In the case of C32A C35G, the self-cleavage is reported as 0.163.
In the case of C32G U53G, the self-cleavage is reported as 0.382.
With C32G U53C the self-cleavage was 0.217.
C32A U53A gave a self-cleavage of 0.501.
With C32G A42U the self-cleavage was 0.44.
In the case of C32G A42G, the self-cleavage is reported as 0.569.
Variant C32G A42C has a self-cleavage of 0.343.
Variant G31C U69A has a self-cleavage of 0.381.
For G31C U69C, the self-cleavage was 0.451.
For C32A U43G, the self-cleavage was 0.374.
With G31C U44C the self-cleavage was 0.27.
Work on C32A U36G yielded a self-cleavage of 0.263.
With G31C U53C the self-cleavage was 0.237.
G31C U53G gave a self-cleavage of 0.139.
Variant G31U A60C has a self-cleavage of 0.291.
C32A G47U gave a self-cleavage of 0.897.
C32G G47U showed a self-cleavage of 0.514.
Work on C32A A42G yielded a self-cleavage of 0.448.
For C32U G50C, the self-cleavage was 0.991.
C32G A59C gave a self-cleavage of 0.243.
